The results in this text go back to the supplement of paper PMC7877785.

This data set in a line: self-splicing fitness, log relative to wild type (ln ratio); higher = more splicing; Tetrahymena group I intron in knt gene, E. coli kanamycin selection, DiMSum; sequences stand for … in CUCUCU…GGAGGGAAAAGUUAUCAGGCAUGCACCUGGUAGCUAGUCUUUAAACCAAUAGAUUGCAUCGGUUUAAAAGGCAAGACCGUCAAAUUGCGGGAAAGGGGUCAACAGCCGUUCAGUACCAAGUCUCAGGGGAAACUUUGAGAUGGCCUUGCAAAGGGUAUGGUAAUAAGCUGACGGACAUGGUCCUAACCACGCAGCCAAGUCCUAAGUCAACAGAUCUUCUGUUGAUAUGGAUGCAGUUCACAGACUAAAUGUCGGUCGGGGAAGAUGUAUUCUUCUCAUAAGAUAUAGUCGGACCUCUCCUUAAUGGGAGCUAGCGGAUGAAGUGAUGCAACACUGGAGCCGCUGGGAACUAAUUUGUAUGCGAAAGUAUAUUGAUUAGUUUUGGAGUACUCGUGGUCG
An outline of the steps: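 The eight P1ex-region nucleotides of an intron in the knt kanamycin-resistance gene on pET-22b(+) were all randomised and the library put into E. coli BL21(DE3). Six replicate transformations were grown overnight at 37°C or 30°C on LB agar with or without 25 μg/mL kanamycin, together with 100 μg/mL carbenicillin, 50 μM IPTG and 0.2% rhamnose. Colonies were pooled and amplicon-sequenced on an Illumina HiSeq 2500. Fitness from DiMSum is the error-weighted combination of wild-type-normalised replicate fold changes, kanamycin over none.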

± gives the uncertainty stated by the source.

As to UUCAAGCAAUAUUACGGUGC, the “self-splicing fitness (ln)” value runs as follows: (30 °C) -2.77 ± 0.42; (37 °C) -0.868 ± 0.3.

In the case of UUCAAGCAAUAUUACGGUUC, the “self-splicing fitness (ln)” value is -4.02 ± 0.32 (30 °C) and -2.78 ± 0.48 (37 °C).

In the case of UUCAAGCAAUAUUACGUAGU, the “self-splicing fitness (ln)” value (30 °C) is -3.6 ± 0.22 and the “self-splicing fitness (ln)” value (37 °C) was -1.61 ± 0.2.

UUCAAGCAAUAUUACGUCGU: the “self-splicing fitness (ln)” value reads like this: (30 °C) -2.69 ± 0.15; (37 °C) -1.44 ± 0.14.

For the sequence UUCAAGCAAUAUUACGUCUG, the “self-splicing fitness (ln)” value runs as follows: (30 °C) -3.08 ± 0.24; (37 °C) -1.46 ± 0.14.

In the case of UUCAAGCAAUAUUACGUGCU, the “self-splicing fitness (ln)” value (30 °C) was -4.47 ± 0.42 and the “self-splicing fitness (ln)” value (37 °C) is -2.86 ± 0.35.

With UUCAAGCAAUAUUACGUUUG, the “self-splicing fitness (ln)” value was -3.95 ± 0.34 (30 °C) and -2.31 ± 0.28 (37 °C).

Consider UUCCAGCAAUAUUACGACGG, for which the “self-splicing fitness (ln)” value (30 °C) was -2.74 ± 0.32 and the “self-splicing fitness (ln)” value (37 °C) is -1.98 ± 0.29.

As to UUCCAGCAAUAUUACGAGCU, the “self-splicing fitness (ln)” value is, setting by setting: (30 °C) -3.64 ± 0.23; (37 °C) -2.71 ± 0.27.

As for UUCCAGCAAUAUUACGAGUG, the “self-splicing fitness (ln)” value (30 °C) is -0.354 ± 0.059 and the “self-splicing fitness (ln)” value (37 °C) is -0.52 ± 0.069.

Regarding UUCCAGCAAUAUUACGCAGA, the “self-splicing fitness (ln)” value (30 °C) was -2.09 ± 0.21 and the “self-splicing fitness (ln)” value (37 °C) was -1.32 ± 0.16.

Regarding UUCCAGCAAUAUUACGCCAG, the “self-splicing fitness (ln)” value was -1.93 ± 0.15 (30 °C) and -0.95 ± 0.15 (37 °C).

Turning to UUCCAGCAAUAUUACGCUCG, the “self-splicing fitness (ln)” value (37 °C) was -0.977 ± 0.23.

Regarding UUCCAGCAAUAUUACGCUGA, the “self-splicing fitness (ln)” value (30 °C) was -3.73 ± 0.24 and the “self-splicing fitness (ln)” value (37 °C) is -1.91 ± 0.14.

With UUCCAGCAAUAUUACGGCAA, the “self-splicing fitness (ln)” value was -0.0711 ± 0.1 (30 °C) and 0.362 ± 0.12 (37 °C).

In the case of UUCCAGCAAUAUUACGGCUG, the “self-splicing fitness (ln)” value reads like this: (30 °C) -3.09 ± 0.2; (37 °C) -2.68 ± 0.25.

As for UUCCAGCAAUAUUACGGGAC, the “self-splicing fitness (ln)” value (37 °C) is -1.29 ± 0.39.

In the case of UUCCAGCAAUAUUACGGGGG, the “self-splicing fitness (ln)” value is, setting by setting: (30 °C) -3.3 ± 0.15; (37 °C) -1.57 ± 0.14.

For UUCCAGCAAUAUUACGGUUU, the “self-splicing fitness (ln)” value (30 °C) was -0.65 ± 0.064 and the “self-splicing fitness (ln)” value (37 °C) is -0.427 ± 0.063.

With UUCCAGCAAUAUUACGUAAA, the “self-splicing fitness (ln)” value reads like this: (30 °C) -0.607 ± 0.086; (37 °C) 0.616 ± 0.12.

Regarding UUCCAGCAAUAUUACGUAGC, the “self-splicing fitness (ln)” value reads like this: (30 °C) -3.54 ± 0.17; (37 °C) -1.51 ± 0.2.

As to UUCCAGCAAUAUUACGUCGC, the “self-splicing fitness (ln)” value (30 °C) was -1.69 ± 0.32 and the “self-splicing fitness (ln)” value (37 °C) was -1.23 ± 0.45.

For UUCCAGCAAUAUUACGUUGC, the “self-splicing fitness (ln)” value (30 °C) was -2.4 ± 0.15 and the “self-splicing fitness (ln)” value (37 °C) is -2.47 ± 0.33.

As for UUCGAGCAAUAUUACGAAAA, the “self-splicing fitness (ln)” value (30 °C) is -2.97 ± 0.31 and the “self-splicing fitness (ln)” value (37 °C) was -1.28 ± 0.18.

Take UUCGAGCAAUAUUACGAAAC: the “self-splicing fitness (ln)” value (37 °C) is -1.41 ± 0.43.

UUCGAGCAAUAUUACGAGGA: the “self-splicing fitness (ln)” value (30 °C) is -1.87 ± 0.27 and the “self-splicing fitness (ln)” value (37 °C) is -2.76 ± 0.44.

In the case of UUCGAGCAAUAUUACGAGUA, the “self-splicing fitness (ln)” value is -1.57 ± 0.15 (30 °C) and -1.43 ± 0.18 (37 °C).

For UUCGAGCAAUAUUACGAUAA, the “self-splicing fitness (ln)” value is -1.53 ± 0.097 (30 °C) and -0.787 ± 0.11 (37 °C).

For UUCGAGCAAUAUUACGAUCG, the “self-splicing fitness (ln)” value is, setting by setting: (30 °C) -2.94 ± 0.32; (37 °C) -1.53 ± 0.43.

For UUCGAGCAAUAUUACGCAGU, the “self-splicing fitness (ln)” value reads like this: (30 °C) -2.87 ± 0.36; (37 °C) -1.61 ± 0.33.

For the sequence UUCGAGCAAUAUUACGCCAG, the “self-splicing fitness (ln)” value reads like this: (30 °C) -2.94 ± 0.24; (37 °C) -0.74 ± 0.21.

Take UUCGAGCAAUAUUACGCGAU: the “self-splicing fitness (ln)” value reads like this: (30 °C) -2.39 ± 0.21; (37 °C) -2.11 ± 0.27.

As for UUCGAGCAAUAUUACGCGGC, the “self-splicing fitness (ln)” value (37 °C) is -2.29 ± 0.49.

Turning to UUCGAGCAAUAUUACGGUCC, the “self-splicing fitness (ln)” value runs as follows: (30 °C) -1.91 ± 0.39; (37 °C) -1.56 ± 0.43.

With UUCGAGCAAUAUUACGUAUA, the “self-splicing fitness (ln)” value (30 °C) was -2.7 ± 0.33 and the “self-splicing fitness (ln)” value (37 °C) is -2.78 ± 0.41.

With UUCGAGCAAUAUUACGUGUU, the “self-splicing fitness (ln)” value was -4.05 ± 0.25 (30 °C) and -1.72 ± 0.18 (37 °C).

Regarding UUCGAGCAAUAUUACGUUAC, where the note is “30 °C”, the “self-splicing fitness (ln)” value was -3.5 ± 0.48.

In the case of UUCGAGCAAUAUUACGUUCU, the “self-splicing fitness (ln)” value runs as follows: (30 °C) -1.47 ± 0.15; (37 °C) -0.345 ± 0.16.

On to UUCGAGCAAUAUUACGUUUG, for which the “self-splicing fitness (ln)” value reads like this: (30 °C) -2.94 ± 0.14; (37 °C) -2.99 ± 0.2.

Turning to UUCUAGCAAUAUUACGAGGA, the “self-splicing fitness (ln)” value (30 °C) is -2.56 ± 0.25 and the “self-splicing fitness (ln)” value (37 °C) was -1.4 ± 0.25.

Turning to UUCUAGCAAUAUUACGAUCA, the “self-splicing fitness (ln)” value runs as follows: (30 °C) -1.69 ± 0.23; (37 °C) -0.172 ± 0.18.

As for UUCUAGCAAUAUUACGCCUU, the “self-splicing fitness (ln)” value (30 °C) was -3.43 ± 0.21 and the “self-splicing fitness (ln)” value (37 °C) was -2.57 ± 0.15.

Take UUCUAGCAAUAUUACGCGCG: the “self-splicing fitness (ln)” value reads like this: (30 °C) -2.24 ± 0.32; (37 °C) -1.05 ± 0.18.

Take UUCUAGCAAUAUUACGCUCA: the “self-splicing fitness (ln)” value is -0.563 ± 0.15 (30 °C) and -0.208 ± 0.19 (37 °C).

As to UUCUAGCAAUAUUACGCUGA, the “self-splicing fitness (ln)” value (30 °C) is -1.04 ± 0.31 and the “self-splicing fitness (ln)” value (37 °C) is -0.752 ± 0.25.

Regarding UUCUAGCAAUAUUACGCUUC, the “self-splicing fitness (ln)” value is -2.8 ± 0.32 (30 °C) and -1.96 ± 0.22 (37 °C).

For the sequence UUCUAGCAAUAUUACGGACC, the “self-splicing fitness (ln)” value (30 °C) is -1.51 ± 0.3.

Turning to UUCUAGCAAUAUUACGGCCG, the “self-splicing fitness (ln)” value was -1.96 ± 0.14 (30 °C) and -1.56 ± 0.16 (37 °C).

UUCUAGCAAUAUUACGGCGU: the “self-splicing fitness (ln)” value (30 °C) was -1.72 ± 0.13 and the “self-splicing fitness (ln)” value (37 °C) was -1.2 ± 0.14.

With UUCUAGCAAUAUUACGGGGC, the “self-splicing fitness (ln)” value was -3.22 ± 0.32 (30 °C) and -2.02 ± 0.26 (37 °C).

UUCUAGCAAUAUUACGGUAC: the “self-splicing fitness (ln)” value (30 °C) was -4.34 ± 0.36 and the “self-splicing fitness (ln)” value (37 °C) is -2.76 ± 0.3.

Regarding UUCUAGCAAUAUUACGGUAG, the “self-splicing fitness (ln)” value is, setting by setting: (30 °C) -2.29 ± 0.23; (37 °C) -3.15 ± 0.37.

Regarding UUCUAGCAAUAUUACGUCGA, the “self-splicing fitness (ln)” value (30 °C) was -1.02 ± 0.13 and the “self-splicing fitness (ln)” value (37 °C) was -0.474 ± 0.15.

With UUCUAGCAAUAUUACGUCGU, the “self-splicing fitness (ln)” value runs as follows: (30 °C) -3.47 ± 0.26; (37 °C) -2.19 ± 0.17.

For UUCUAGCAAUAUUACGUGUG, the “self-splicing fitness (ln)” value by setting is: (30 °C) -0.91 ± 0.06; (37 °C) -0.542 ± 0.082.

As to UUCUAGCAAUAUUACGUUCU, the “self-splicing fitness (ln)” value is, setting by setting: (30 °C) -3.79 ± 0.46; (37 °C) -1.26 ± 0.18.

Turning to UUCUAGCAAUAUUACGUUGA, the “self-splicing fitness (ln)” value by setting is: (30 °C) -3.03 ± 0.22; (37 °C) -1.47 ± 0.18.

For the sequence UUGAAGCAAUAUUACGACGG, the “self-splicing fitness (ln)” value was found to be 0.0862 ± 0.13 (30 °C) and 0.756 ± 0.17 (37 °C).

Consider UUGAAGCAAUAUUACGAGAU, for which the “self-splicing fitness (ln)” value (30 °C) was -3.15 ± 0.18 and the “self-splicing fitness (ln)” value (37 °C) was -2.87 ± 0.23.

Consider UUGAAGCAAUAUUACGCAAU, for which the “self-splicing fitness (ln)” value reads like this: (30 °C) -2.4 ± 0.21; (37 °C) -2.02 ± 0.16.

Turning to UUGAAGCAAUAUUACGCCUG, the “self-splicing fitness (ln)” value came out at 0.189 ± 0.11 (30 °C) and 0.0665 ± 0.12 (37 °C).

UUGAAGCAAUAUUACGCCUU: the “self-splicing fitness (ln)” value is, setting by setting: (30 °C) -2.96 ± 0.13; (37 °C) -1.53 ± 0.14.
